Results published in patent US20200079833A1 (AstraZeneca / MedImmune, published 2020).
Starred links: 1 amine or outer side, 2 acyl side, 3 side chain; linkers in the order of their positions; H or OH if unused. Non-standard residues stand in square brackets, D forms with d. Groups on a side chain read outwards from the residue. Primed or numbered codes have the meaning given here. No end group written: not given here. *: point of attachment. γGlu = O=C(O)[C@H](CCC(=O)[*:2])N[*:1]; Stearoyl = CCCCCCCCCCCCCCCCCC(=O)*; αMeF = C[C@](N)(Cc1ccccc1)C(=O)O; αMeK = C[C@](N)(CCCCN)C(=O)O; αMeS = C[C@](N)(CO)C(=O)O; PEG2′ = not defined here; Aib = CC(C)(N)C(=O)O

T1: GLP-1R (INS1e assay) (UniProt P32301 22-463, limits assumed)
T1 sequence (looked up): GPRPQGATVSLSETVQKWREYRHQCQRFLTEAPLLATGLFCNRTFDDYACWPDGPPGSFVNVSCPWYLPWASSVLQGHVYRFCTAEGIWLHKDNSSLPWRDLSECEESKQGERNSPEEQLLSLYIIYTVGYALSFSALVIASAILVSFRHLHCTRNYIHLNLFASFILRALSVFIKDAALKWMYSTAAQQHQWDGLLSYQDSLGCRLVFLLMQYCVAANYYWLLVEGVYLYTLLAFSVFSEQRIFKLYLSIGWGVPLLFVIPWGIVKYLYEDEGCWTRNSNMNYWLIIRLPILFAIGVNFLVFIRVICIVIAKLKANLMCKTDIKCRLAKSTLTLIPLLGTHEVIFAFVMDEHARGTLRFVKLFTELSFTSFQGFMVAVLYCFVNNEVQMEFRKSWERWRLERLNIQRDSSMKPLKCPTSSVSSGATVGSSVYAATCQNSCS

B1: SEQ ID NO 43 (peptide)
peptide: H[Aib]EGS[αMeF]TSDV[αMeS]S[αMeF]LEGEAA[αMeK]E[αMeF]IA[αMeF]VVEGG-NH2
modifications: N-terminus assumed
SMILES: CC[C@H](C)[C@H](NC(=O)[C@](C)(Cc1ccccc1)NC(=O)[C@H](CCC(=O)O)NC(=O)[C@](C)(CCCCN)NC(=O)[C@H](C)NC(=O)[C@H](C)NC(=O)[C@H](CCC(=O)O)NC(=O)CNC(=O)[C@H](CCC(=O)O)NC(=O)[C@H](CC(C)C)NC(=O)[C@](C)(Cc1ccccc1)NC(=O)[C@H](CO)NC(=O)[C@](C)(CO)NC(=O)[C@@H](NC(=O)[C@H](CC(=O)O)NC(=O)[C@H](CO)NC(=O)[C@@H](NC(=O)[C@](C)(Cc1ccccc1)NC(=O)[C@H](CO)NC(=O)CNC(=O)[C@H](CCC(=O)O)NC(=O)C(C)(C)NC(=O)[C@@H](N)Cc1c[nH]cn1)[C@@H](C)O)C(C)C)C(=O)N[C@@H](C)C(=O)N[C@@](C)(Cc1ccccc1)C(=O)N[C@H](C(=O)N[C@H](C(=O)N[C@@H](CCC(=O)O)C(=O)NCC(=O)NCC(N)=O)C(C)C)C(C)C
B2: SEQ ID NO 17 (peptide)
peptide: H[Aib]EGS[αMeF]TSDV[αMeS]S[αMeF]LEGEAA[αMeK]E[αMeF]IA[αMeF]VV[αMeK]GG-NH2
modifications: N-terminus assumed
SMILES: CC[C@H](C)[C@H](NC(=O)[C@](C)(Cc1ccccc1)NC(=O)[C@H](CCC(=O)O)NC(=O)[C@](C)(CCCCN)NC(=O)[C@H](C)NC(=O)[C@H](C)NC(=O)[C@H](CCC(=O)O)NC(=O)CNC(=O)[C@H](CCC(=O)O)NC(=O)[C@H](CC(C)C)NC(=O)[C@](C)(Cc1ccccc1)NC(=O)[C@H](CO)NC(=O)[C@](C)(CO)NC(=O)[C@@H](NC(=O)[C@H](CC(=O)O)NC(=O)[C@H](CO)NC(=O)[C@@H](NC(=O)[C@](C)(Cc1ccccc1)NC(=O)[C@H](CO)NC(=O)CNC(=O)[C@H](CCC(=O)O)NC(=O)C(C)(C)NC(=O)[C@@H](N)Cc1c[nH]cn1)[C@@H](C)O)C(C)C)C(=O)N[C@@H](C)C(=O)N[C@@](C)(Cc1ccccc1)C(=O)N[C@H](C(=O)N[C@H](C(=O)N[C@@](C)(CCCCN)C(=O)NCC(=O)NCC(N)=O)C(C)C)C(C)C
B3: SEQ ID NO 44 (peptide)
peptide: H[Aib]EGS[αMeF]TSDV[αMeS]S[αMeF]LEGEAAEE[αMeF]IA[αMeF]VVEGG-NH2
modifications: N-terminus assumed
SMILES: CC[C@H](C)[C@H](NC(=O)[C@](C)(Cc1ccccc1)NC(=O)[C@H](CCC(=O)O)NC(=O)[C@H](CCC(=O)O)NC(=O)[C@H](C)NC(=O)[C@H](C)NC(=O)[C@H](CCC(=O)O)NC(=O)CNC(=O)[C@H](CCC(=O)O)NC(=O)[C@H](CC(C)C)NC(=O)[C@](C)(Cc1ccccc1)NC(=O)[C@H](CO)NC(=O)[C@](C)(CO)NC(=O)[C@@H](NC(=O)[C@H](CC(=O)O)NC(=O)[C@H](CO)NC(=O)[C@@H](NC(=O)[C@](C)(Cc1ccccc1)NC(=O)[C@H](CO)NC(=O)CNC(=O)[C@H](CCC(=O)O)NC(=O)C(C)(C)NC(=O)[C@@H](N)Cc1c[nH]cn1)[C@@H](C)O)C(C)C)C(=O)N[C@@H](C)C(=O)N[C@@](C)(Cc1ccccc1)C(=O)N[C@H](C(=O)N[C@H](C(=O)N[C@@H](CCC(=O)O)C(=O)NCC(=O)NCC(N)=O)C(C)C)C(C)C
B4: SEQ ID NO 42 (peptide)
peptide: H[Aib]EGS[αMeF]TSDV[αMeS]S[αMeF]LEGEAAEE[αMeF]IA[αMeF]VV[αMeK]GG-NH2
modifications: N-terminus assumed
SMILES: CC[C@H](C)[C@H](NC(=O)[C@](C)(Cc1ccccc1)NC(=O)[C@H](CCC(=O)O)NC(=O)[C@H](CCC(=O)O)NC(=O)[C@H](C)NC(=O)[C@H](C)NC(=O)[C@H](CCC(=O)O)NC(=O)CNC(=O)[C@H](CCC(=O)O)NC(=O)[C@H](CC(C)C)NC(=O)[C@](C)(Cc1ccccc1)NC(=O)[C@H](CO)NC(=O)[C@](C)(CO)NC(=O)[C@@H](NC(=O)[C@H](CC(=O)O)NC(=O)[C@H](CO)NC(=O)[C@@H](NC(=O)[C@](C)(Cc1ccccc1)NC(=O)[C@H](CO)NC(=O)CNC(=O)[C@H](CCC(=O)O)NC(=O)C(C)(C)NC(=O)[C@@H](N)Cc1c[nH]cn1)[C@@H](C)O)C(C)C)C(=O)N[C@@H](C)C(=O)N[C@@](C)(Cc1ccccc1)C(=O)N[C@H](C(=O)N[C@H](C(=O)N[C@@](C)(CCCCN)C(=O)NCC(=O)NCC(N)=O)C(C)C)C(C)C

biological target: T1, GLP-1R (INS1e assay); assay: cell-based or functional assay

Row | INS1e assay EC50 GLP-1 R n1 [pM] | INS1e assay EC50 GLP-1 R n2 [pM] | INS1e assay EC50 Mean pM GLP-1R [pM] | Binder
1 | 7130 | 12200 | 9660 | H[Aib]EGS[αMeF]TSDV[αMeS]SYLEGEAAK([PEG2′-PEG2′-γGlu-Stearoyl])E[αMeF]IA[αMeF]VV[αMeK]GG-NH2 [SEQ ID NO 47]
2 | 22100 | 42600 | 32400 | H[Aib]EGS[αMeF]TSDV[αMeS]S[αMeF]LEGEAAK([PEG2′-PEG2′-γGlu-Stearoyl])E[αMeF]IA[αMeF]VVKGG-NH2 [SEQ ID NO 50]
3 | 3590 | 3780 | 3680 | H[Aib]EGS[αMeF]TSDV[αMeS]S[αMeF]LEGEAAK([PEG2′-PEG2′-γGlu-Stearoyl])E[αMeF]IA[αMeF]VV[αMeK]GG-NH2 [SEQ ID NO 33]
4 | 16 | 10.5 | 13 | B1
5 | 35.2 | 77 | 56 | H[Aib]EGS[αMeF]TSDV[αMeS]S[αMeF]LEGEAAK([PEG2′-PEG2′-PEG2′-Stearoyl])E[αMeF]IA[αMeF]VVKGG-NH2 [SEQ ID NO 56]
6 | 12.5 | 10.1 | 11 | H[Aib]EGS[αMeF]TSDV[αMeS]S[αMeF]LEGEAAK([PEG2′-PEG2′-PEG2′-Stearoyl])E[αMeF]IAWVV[αMeK]GG-NH2 [SEQ ID NO 55]
7 | 104 | 139 | 122 | HXEGTFTSDVSSYLEGQAAKEFIAWLVKGRK (Aib2; K(ε-(PEG)2-(PEG)2-γE-Stearate) after R30; C-terminal amide) [SEQ ID NO 6]
8 | 9350 | 10700 | 10000 | H[Aib]EGS[αMeF]TSDV[αMeS]S[αMeF]LEGEAAK([PEG2′-PEG2′-γGlu-Stearoyl])E[αMeF]IAWVV[αMeK]GG-NH2 [SEQ ID NO 49]
9 | 24.7 | 20.7 | 23 | H[Aib]EGSFTSDV[αMeS]S[αMeF]LEGEAAK([PEG2′-PEG2′-PEG2′-Stearoyl])E[αMeF]IA[αMeF]VV[αMeK]GG-NH2 [SEQ ID NO 51]
10 | 5.1 | 7.87 | 6 | B2
11 | 475 | 435 | 455 | B3
12 | 52600 | 83400 | 68000 | H[Aib]EGS[αMeF]TSDVSS[αMeF]LEGEAAK([PEG2′-PEG2′-γGlu-Stearoyl])E[αMeF]IA[αMeF]VV[αMeK]GG-NH2 [SEQ ID NO 46]
13 | 207 | 167 | 187 | B4
14 | 3590 | 3780 | 3680 | H[Aib]EGS[αMeF]TSDV[αMeS]S[αMeF]LEGEAAK([PEG2′-PEG2′-γGlu-Stearoyl])E[αMeF]IA[αMeF]VV[αMeK]GG-NH2 [SEQ ID NO 3]
15 | 21.4 | 19.3 | 20 | H[Aib]EGS[αMeF]TSDVSS[αMeF]LEGEAAK([PEG2′-PEG2′-PEG2′-Stearoyl])E[αMeF]IA[αMeF]VV[αMeK]GG-NH2 [SEQ ID NO 52]
16 | 729 | 871 | 800 | H[Aib]EGS[αMeF]TSDV[αMeS]S[αMeF]LEGEAAK([PEG2′-PEG2′-γGlu-Stearoyl])EFIA[αMeF]VV[αMeK]GG-NH2 [SEQ ID NO 48]
17 | 76100 | 113000 | 94600 | H[Aib]EGSFTSDV[αMeS]S[αMeF]LEGEAAK([PEG2′-PEG2′-γGlu-Stearoyl])E[αMeF]IA[αMeF]VV[αMeK]GG-NH2 [SEQ ID NO 45]
18 | 2.67 | 8.37 | 6 | H[Aib]EGS[αMeF]TSDV[αMeS]S[αMeF]LEGEAAK([PEG2′-PEG2′-PEG2′-Stearoyl])EFIA[αMeF]VV[αMeK]GG-NH2 [SEQ ID NO 54]
19 | 6.25 | 8.15 | 7 | H[Aib]EGS[αMeF]TSDV[αMeS]SYLEGEAAK([PEG2′-PEG2′-PEG2′-Stearoyl])E[αMeF]IA[αMeF]VV[αMeK]GG-NH2 [SEQ ID NO 53]
